Measured values as given in patent US20120321619A1 (Bayer, published 2012).

T1: recombinant soluble human C4.4a (human, UniProt O95274 31-308)
T1 construct: recombinant, soluble, purified protein; also called hC4.4a; full length C4.4a
T1 sequence: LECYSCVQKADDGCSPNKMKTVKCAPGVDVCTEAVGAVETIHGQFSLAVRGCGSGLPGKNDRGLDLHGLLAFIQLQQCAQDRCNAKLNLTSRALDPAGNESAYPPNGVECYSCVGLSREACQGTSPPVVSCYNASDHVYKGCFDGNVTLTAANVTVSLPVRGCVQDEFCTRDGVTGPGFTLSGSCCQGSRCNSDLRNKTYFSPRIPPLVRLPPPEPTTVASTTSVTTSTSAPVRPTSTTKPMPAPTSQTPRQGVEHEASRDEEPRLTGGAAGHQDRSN

T2: recombinant soluble murine C4.4a (mouse, UniProt Q91YK8 33-343, limits assumed)
T2 construct: also called mouse C4.4a; mC4.4a
T2 sequence (looked up): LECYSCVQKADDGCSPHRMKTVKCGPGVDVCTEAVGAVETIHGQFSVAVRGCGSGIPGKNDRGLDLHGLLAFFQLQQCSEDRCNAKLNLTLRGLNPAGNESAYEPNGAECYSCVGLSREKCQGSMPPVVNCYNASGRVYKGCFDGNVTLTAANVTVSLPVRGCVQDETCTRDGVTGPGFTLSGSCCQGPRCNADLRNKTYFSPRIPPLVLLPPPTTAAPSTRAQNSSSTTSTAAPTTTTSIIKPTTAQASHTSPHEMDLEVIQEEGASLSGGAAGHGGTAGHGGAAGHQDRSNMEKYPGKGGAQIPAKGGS

T3: human C4.4a natively expressed on tumor cell lines (human, UniProt O95274 31-326)
T3 construct: whole, on cells; also called NCI H292; NCI H322
T3 sequence (looked up): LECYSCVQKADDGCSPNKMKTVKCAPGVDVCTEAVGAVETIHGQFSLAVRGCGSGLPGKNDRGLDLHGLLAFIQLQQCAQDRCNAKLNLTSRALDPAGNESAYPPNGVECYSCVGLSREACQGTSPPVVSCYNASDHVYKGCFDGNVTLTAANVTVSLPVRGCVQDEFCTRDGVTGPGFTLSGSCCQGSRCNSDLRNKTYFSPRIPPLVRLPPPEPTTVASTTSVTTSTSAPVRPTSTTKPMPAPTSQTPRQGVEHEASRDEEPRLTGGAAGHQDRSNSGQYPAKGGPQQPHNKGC

T4: human C4.4a on transfected A549:hC4.4a cells (human, UniProt O95274 31-326)
T4 construct: full length GPI-anchored form, stably transfected; also called C4.4a:A549
T4 sequence: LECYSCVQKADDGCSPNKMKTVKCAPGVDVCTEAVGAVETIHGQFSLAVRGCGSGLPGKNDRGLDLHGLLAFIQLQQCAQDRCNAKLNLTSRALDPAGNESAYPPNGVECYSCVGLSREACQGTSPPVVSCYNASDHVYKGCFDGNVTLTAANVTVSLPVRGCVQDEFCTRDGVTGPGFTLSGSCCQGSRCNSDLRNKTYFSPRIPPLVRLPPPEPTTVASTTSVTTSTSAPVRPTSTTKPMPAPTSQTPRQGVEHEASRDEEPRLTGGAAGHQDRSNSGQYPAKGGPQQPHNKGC

B1: M31-B01 (antibody, human IgG1, V domains shown)
VH: EVQLLESGGGLVQPGGSLRLSCAASGFTFSNAWMSWVRQAPGKGLEWVSYISSSGSTIYYADSVKGRFTISRDNSKNTLYLQMNSLRAEDTAVYYCAREGLWAFDYWGQGTLVTVTS
VL: QSVLTQPPSASGTPGQRVTISCTGSSSNIGAGYVVHWYQQLPGTAPKLLIYDNNKRPSGVPDRFSGSKSGTSASLAISGLRSEDEADYYCAAWDDRLNGPVFGGGTKLTVLG
notes: tested as human IgG1
B2: M20-D02 S-A (antibody, human IgG1, V domains shown)
VH: EVQLLESGGGLVQPGGSLRLSCAASGFTFSDYQMTWIRQTPGKGLEWVSGVSWNGARTHYADSVKGRFTISRDNSKNTLYLQMNSLRAEDTAVYYCAKGDYLVYSAYYFDSWGQGTLVTVTS
VL: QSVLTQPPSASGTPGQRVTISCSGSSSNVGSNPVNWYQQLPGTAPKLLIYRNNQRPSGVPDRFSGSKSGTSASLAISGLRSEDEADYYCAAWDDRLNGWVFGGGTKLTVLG
notes: tested as human IgG1

Columns and labels:
[1] = molecular target: T1, recombinant soluble human C4.4a; assay: ELISA, IgG1 on coated recombinant human C4.4a
Description: (§1) FIG. 2 depicts binding curves of anti-C4.4 antibody M31-B01 and M20 D02 S-A on recombinant human C4.4a (A) and murine C4.4a (B) respectively. Briefly, 96-well MTP were coated for 16 h at 4° C. with recombinant human or mouse C4.4a (100 ng/well plates were washed 3 times with PBS/0.05% Tween 20 (=buffer B) treated with blocking reagent (PBS+2% BSA), and washed again 3 times with buffer B. After that anti C4.4a antibodies of the invention were added in concentrations of 0.39 ng to 400 ng/per well and incubated for one hour at 20° C. After washing 3 times with buffer B, 20 ng of Protein A were added in 100 μl buffer B to each well. Color reaction was developed by addition of 50 W 3,3′,5,5′-Tetramethylbenzidine (TMB) (Sigma). Data for EC₅₀ determination were recorded after 18 min by measuring extinction […] a Tecan infinite plate reader. EC₅₀ values for M31-B01 were 0.24 and 0.29 nM on human and murine C4.4a, respectively. And for M20-D02 S-A EC₅₀ values were 0.3 and 0.38 nM on human and murine C4.4a, respectively. This indicates high affinity binding of anti C4.4a antibodies of the invention to both human and murine soluble recombinant C4.4a.

[2] = molecular target: T2, recombinant soluble murine C4.4a; assay: ELISA, IgG1 on coated recombinant murine C4.4a
Description: as §1

[3] = molecular target: T3, human C4.4a natively expressed on tumor …; assay: FACS titration on H1975/BCRP cells (native C4.4a), IgG1 format, phycoerythrin-labelled goat anti-human IgG detection
Description: (§2) FACS titration was performed in a 96 well microtiter plate, in which serial dilutions of the primary antibody in a volume of 50 W of FACS buffer (3% FCS, in PBS) were mixed with 50 μl of a cell suspension consisting of 2×10^5 cells/ml which had been detached with Cell Dissociation Solution (1×) Non-enzymatic (Sigma), and resuspended in FACS buffer. Incubation was performed at 4° C. for 1 hour with agitation. Cells were pelleted, washed with FACS buffer and resuspended in 100 μl/well of Phycoerythrin labeled goat anti human IgG (Dianova) solution in FACS buffer. Incubation and washing was performed as before. Analysis of cell-bound antibodies was done at the respective detection wavelength using the FACS Array device. EC₅₀ values were determined from fluorescence medians of duplicates using Swift 8.0 software.

[4] = molecular target: T3, human C4.4a natively expressed on tumor …; assay: FACS titration on BxPC3 cells (native C4.4a), IgG1 format, phycoerythrin-labelled goat anti-human IgG detection
Description: as §2

[5] = molecular target: T3, human C4.4a natively expressed on tumor …; assay: FACS titration on NCI H322 cells (native C4.4a), IgG1 format, phycoerythrin-labelled goat anti-human IgG detection
Description: as §2

[6] = molecular target: T4, human C4.4a on transfected A549:hC4.4a …; assay: FACS titration on transfected A549:hC4.4a cells (printed 'A549:C4.4a'), IgG1 format, phycoerythrin-labelled goat anti-human IgG detection
Description: as §2

| Binder | EC50 [1] | EC50 [2] | EC50 [3] | EC50 [4] | EC50 [5] | EC50 [6] |
| --- | --- | --- | --- | --- | --- | --- |
| B1 | 0.24 nM | 0.29 nM | 0.4 nM | 0.3 nM | 0.3 nM | 1.9 nM |
| B2 | 0.3 nM | 0.38 nM | 1.3 nM | 1 nM | 1.2 nM | 4.3 nM |
